Experimental data from publication PMC5358723 (Genes & Development, 2017).

T1: full-length ABRA1, bacterially expressed (UniProt Q6UWZ7 1-409)
T1 sequence (looked up): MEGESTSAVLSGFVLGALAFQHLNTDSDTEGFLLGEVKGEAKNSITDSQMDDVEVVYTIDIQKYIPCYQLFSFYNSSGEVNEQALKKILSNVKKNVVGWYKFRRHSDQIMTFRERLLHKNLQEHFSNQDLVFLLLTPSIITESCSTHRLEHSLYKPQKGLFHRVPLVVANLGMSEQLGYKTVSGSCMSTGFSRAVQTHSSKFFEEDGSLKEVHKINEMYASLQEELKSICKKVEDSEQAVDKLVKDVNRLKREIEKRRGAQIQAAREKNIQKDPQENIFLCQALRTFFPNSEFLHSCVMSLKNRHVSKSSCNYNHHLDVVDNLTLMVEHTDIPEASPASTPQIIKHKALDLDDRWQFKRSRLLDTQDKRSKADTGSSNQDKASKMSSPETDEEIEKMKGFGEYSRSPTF

B1: ZMYM3 CT (amino acids 1000-1370), bacterially expressed (domain or fragment, human, UniProt Q14202 1000-1370, looked up)
chain: FPKNPLDINPSVDFLFDCGLVGPEDVSTEQDLPRTMRKGQKRLVLSESCSRDSMSSQPSCTGLNYSYGVNAWKCWVQSKYANGETSKGDELRFGPKPMRIKEDILACSAAELNYGLAQFVREITRPNGERYEPDSIYYLCLGIQQYLLENNRMVNIFTDLYYLTFVQELNKSLSTWQPTLLPNNTVFSRVEEEHLWECKQLGVYSPFVLLNTLMFFNTKFFGLQTAEEHMQLSFTNVVRQSRKCTTPRGTTKVVSIRYYAPVRQRKGRDTGPGKRKREDEAPILEQRENRMNPLRCPVKFYEFYLSKCPESLRTRNDVFYLQPERSCIAESPLWYSVIPMDRSMLESMLNRILAVREIYEELGRPGEEDLD
B2: RAP80-AIR (amino acids 227-346), bacterially expressed (domain or fragment, UniProt Q96RL1 227-346, looked up)
chain: HTQCGKPQESTGRGSAFLKAVQGSGDTSRHCLPTLADAKGLQDTGGTVNYFWGIPFCPDGVDPNQYTKVILCQLEVYQKSLKMAQRQLLNKKGFGEPVLPRPPSLIQNECGQGEQASEKN

Tests used:
[1] = target: T1, full-length ABRA1, bacterially expressed; experiment: pull-down
[2] = target: B1; experiment: pull-down

Does B1 bind [1]?
Result: binds

Does B2 bind [2]?
Result: binds
